Source: the supplement of paper PMC12042874
± gives the uncertainty stated by the source.

experiment: amyloid nucleation score (Sup35N fusion, yeast selection) (log enrichment); library NNK2; higher = more nucleation; inactive = no reads after selection
Outline: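 Three technical output replicates were used for random libraries. Psi-negative yeast expressing peptides of 20 random codons fused to Sup35N were induced with 100 μM copper sulfate for 24 hours and grown 7 days at 30°C on medium lacking adenine and uracil, and input and output plasmid inserts were Illumina-sequenced, excluding sequences with under 100 input reads. The nucleation score is the DiMSum log enrichment of output over input reads, centred on the mode score of non-aggregating sequences.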

Substance | amyloid nucleation score
VIPSSILLEGYVLLYACYLP | -0.217 ± 0.44
VIRYINSEDFRTGREFTRGV | -1.68 ± 0.78
VISSLSISCYDHSVYVKAVK | 0.445 ± 0.33
VISSRGALCRRAKQ | 0.409 ± 0.53
VIVWFWRFQNMNVAREFMAE | -0.297 ± 0.37
VKAWYWLKARFVLWTVGARL | -0.093 ± 0.79
VKFNDFTHKNWY | 0.058 ± 0.74
VKGHKRESSWNWRSDGNMWA | -0.111 ± 0.61
VKHIGGISARVYKNCAASAV | -0.74 ± 0.63
VKIWDHKCSLRGYWVKWMIG | 1.45 ± 0.3
VKLEMD | -0.617 ± 0.21
VKLHSVSYLIFLL | 4.8 ± 0.11
VKMLSLKSIHLSYFCECASW | 0.28 ± 0.21
VKNWVISCGGILNDARRLFD | -0.78 ± 1.1
VKQYYGSESNNGITFILRIA | 0.177 ± 0.38
VKSLLRDLCGPGCMLYMIVH | -0.11 ± 0.53
VKTRTFRTCRSHRIEFMDWV | -0.064 ± 1.1
VKTRVQPRTGDLSATLLGLE | 0.828 ± 0.48
VKVGEISCFNFKEYTFLLTD | inactive
VKYVIIEHFNWSVSCCAYLR | 1.37 ± 0.23
VLCEQHGTGKHSISAEKGHR | 1.44 ± 0.41
VLFSRTTSEEDKRSIISMNN | 2.17 ± 0.18
VLGGLCSVFGDDGTAYYSSS | 0.417 ± 0.36

Substance | amyloid nucleation score
VLGVLR | inactive
VLIFRAMIFDDKALVGMKD | -0.521 ± 0.45
VLILNQE | inactive
VLMDASTSVYTRSLMWKYMR | -0.162 ± 0.76
VLNIFVT | 7.248 ± 0.061
VLPLFNGIARHPCWNLCMPM | -1.27 ± 0.62
VLPLGHWMAFMTREVCGADM | 0.514 ± 0.17
VLRHLD | 0.44 ± 0.54
VLRMRGCW | 6.738 ± 0.049
VLRTPIIHTMGTGQV | 0.297 ± 0.56
VLSMVVDKCLCTMCIQAIVL | 9.711 ± 0.058
VLSTWWVSYAGTVFVRSEGT | 3.58 ± 0.14
VLVKSLMRENVPCPPLGTLS | 0.942 ± 0.36
VLVMLGGNSARVSCNWVM | 7.457 ± 0.031
VLWLADLSR | 0.113 ± 0.8
VLYVGWFRAKDNIVFLTYGC | -0.158 ± 0.61
VMARYMFVK | 0.064 ± 0.65
VMCFVDRDRFCNLFKLCLEF | -1.45 ± 0.49
VMFTGHCVTRNDRDRLVLTY | -0.522 ± 0.76
VMRAMFSRAPFGPRNSSPLN | 0.417 ± 0.37
VMRRVVKKQSWYLIKGLSM | 0.802 ± 0.32
VMSFHWCVVSSVPWDCQACH | 3.93 ± 0.1
VMVDMGGWHEAWLVTSIRWS | 0.889 ± 0.3

Substance | amyloid nucleation score
VMYRCSRSALNLHVRRNWRW | 0.455 ± 0.65
VNFNMALDNYFSNFEYRVRN | -1.17 ± 0.35
VNFNQSRCVDYVGILVIGG | -0.248 ± 0.28
VNGWDWQRYLRILKCFVVY | 0.615 ± 0.36
VNIERGFLRLKRLD | -0.316 ± 1.1
VNKSSERNESIGRFRTCYRR | 0.345 ± 0.8
VNNGLPDCFSLRYAVHPMRL | -0.526 ± 0.64
VNNGSMFSRGDWCVVLYPTW | 3.45 ± 0.077
VNQFNVIIKD | 3.33 ± 0.1
VNSEPDTLEGNENWYMGTRC | -0.125 ± 0.49
VNTSFATFSSVSLEGLLSMV | -0.595 ± 0.3
VNVEYSSMHKLCAW | 0.201 ± 0.46
VNVGKCNRTVGIWLLWKVNA | 0.584 ± 0.44
VPLGECIPNFLSTYGGYVVS | -0.287 ± 0.33
VPNYLCGDTLPEYYETPPDH | 0.224 ± 0.4
VPRKILFCLLACCRMRQACS | 0.67 ± 0.33
VPSQRNWFC | 0.007 ± 0.63
VPSSEYFIVFVCRPLLIVSL | inactive
VPSTIWMTR | 0.585 ± 0.38
VPWSLGLCSIFRSFK | 2.38 ± 0.16
VQNLMYIVISPFDRYGRCGR | 9.735 ± 0.048
VQPYSILNFRMELKANRLEL | 4.4 ± 0.052
VQVVLNSETSSCASLRCMTY | 8.047 ± 0.029
